Consider 2 molecules from doi:10.1101/2024.04.27.591446 (bioRxiv, 2024).

In general, stoichiometry N refers to the number of molecules, sites or subunits per partner or assembly.

In assay [1] the target is SARS-CoV-2 EG5.1 S ectodomain with 6P and furin mutations, trimer (SARS-CoV-2 Omicron EG.5.1, stabilised). As to the kind of experiment: cryo-EM structure.
Assay [2] addresses SARS-CoV-2 Spike Wuhan-Hu-1 (SARS-CoV-2 Wuhan-Hu-1, UniProt P0DTC2). As to the kind of experiment: ELISA. Background: In an ELISA, binding on a coated surface is turned into a signal by an enzyme label.

B1: 1301B7 Fab (Fab, V domains shown)
VH: EVQLVESGAEVKNPGSSVKVSCKASEGTFGSYPIIWVRQAPGQGLEWVGGIIPILGTVIYAQKFQGRVTITGDTYAGSAHMELSGLRSEDTAVFYCARGSYDYGDRLLNYTYYAMDVWGPGTTVTVSS
VL: QPGLTQPPSVSGAPGQRVTISCTGSRSNIGAVYAVHWYQHVPGAAPKLLIYENNNRPSGIPDRFSGSKSGTSASLVITGLQAEDEADYLCQSYDRSVGVVFGGGTRLTVL
As for B1, the “stoichiometry N” value in assay [1] came out at 1 Fab per Spike trimer.

B2: 1301B7 recombinant human monoclonal antibody (hmAb), IgG1 (antibody, V domains shown)
VH: B1 VH
VL: B1 VL
Take B2: the binding result in assay [2] is recorded as “binds”.
